The record followed here is patent WO2015050959A1 (dated 2015).

The target in test [1] is Wild type KIT expressed on cells (UniProt P10721 26-976, limits assumed). In words: cell-based or functional assay.
Test [2] concerns the target T1, Soluble KITD4-5 fragment (amino acids 308-514) (human, UniProt P10721 308-514, glycosylated Asn320 (partial deglycosylation with endoglycosidase F1)).
T1 construct: range 308-514; Expressed in Sf9 insect cells with an N-terminal His-tag and a TEV site; also called KITm-5; KITm-s
In words: SPR (Biacore T100, 25 C), KITD4-5 amine-coupled to a CM5 chip, Fab as analyte 0.12-10 nM, 1:1 Langmuir fit. Background: In SPR one partner is held on a chip, and binding of the other changes the refractive index at the surface.

The target in test [3] is T1, Soluble KITD4-5 fragment (amino acids …). As to the kind of experiment: SPR (Biacore T100, 25 C), KITD4-5 amine-coupled to a CM5 chip, Fab as analyte, long dissociation time, 1:1 Langmuir fit.

B1: IgG 79D (antibody, V domains shown)
VH: EVQLVESGGGLVQPGGSLRLSCAASGFNISVYMMHWVRQAPGKGLEWVASIYPYSGYTYYADSVKGRFTISADTSKNTAYLQMNSLRAEDTAVYYCARYVYHALDYWGQGTLVTVSS
VL: DIQMTQSPSSLSASVGDRVTITCRASQRGLRNVAVAWYQQKPGKAPKLLIYSASSLYSGVPSRFSGSRSGTDFTLTISSLQPEDFATYYCQQWAVHSLITFGQGTKVEIKR
Take B1: the “concentration at which KIT autophosphorylation was inhibited (NIH-3T3 cells expressing wt KIT, SCF stimulation)” value in test [1] came to 1 nM.

B2: Fab19 (Fab)
VH: EVQLVESGGGLVQPGGSLRLSCAASGFNISSYSMHWVRQAPGKGLEWVASIYPYSGYTYYADSVKGRFTISADTSKNTAYLQMNSLRAEDTAVYYCARYVYHALDYWGQGTLVTVSS
light: DIQMTQSPSSLSASVGDRVTITCRASQSVSSAVAWYQQKPGKAPKLLIYSASSLYSGVPSRFSGSRSGTDFTLTISSLQPEDFATYYCQQWAVHSLITFGQGTKVEIKRTVAAPSVFIFPPSDSQLKSGTASVVCLLNNFYPREAKVQWKVDNALQSGNSQESVTEQDSKDSTYSLSSTLTLSKADYEKHKVYACEVTHQGLSSPVTKSFNRGECGGSDYKDDDDK
notes: Human synthetic Fab from phage library F, made in E. coli; Light chain carries a C-terminal Flag-tag; also called parental synthetic Fab; anti-D4 Fab
For B2, in test [1], the “concentration at which KIT autophosphorylation was inhibited (NIH-3T3 cells expressing wt KIT, SCF stimulation)” value was 50 nM. In addition, in test [2], the affinity, expressed as Kd, was 0.63 nM.

B3: Fab79D (Fab)
heavy: EVQLVESGGGLVQPGGSLRLSCAASGFNISVYMMHWVRQAPGKGLEWVASIYPYSGYTYYADSVKGRFTISADTSKNTAYLQMNSLRAEDTAVYYCARYVYHALDYWGQGTLVTVSSASTKGPSVFPLAPSSKSTSGGTAALGCLVKDYFPEPVTVSWNSGALTSGVHTFPAVLQSSGLYSLSSVVTVPSSSLGTQTYICNVNHKPSNTKVDKKVEPKSC
light: DIQMTQSPSSLSASVGDRVTITCRASQRGLRNVAVAWYQQKPGKAPKLLIYSASSLYSGVPSRFSGSRSGTDFTLTISSLQPEDFATYYCQQWAVHSLITFGQGTKVEIKRTVAAPSVFIFPPSDSQLKSGTASVVCLLNNFYPREAKVQWKVDNALQSGNSQESVTEQDSKDSTYSLSSTLTLSKADYEKHKVYACEVTHQGLSSPVTKSFNRGECGGSDYKDDDDK
notes: Made in E. coli; also called last generation Fab; KIT79D (Fab)
For the molecule B3, the Kd (commonly a measure of binding affinity in units of concentration) in test [3] was determined as 0.0064 nM. That is a picomolar value.
